The chains are these.
B1: antibody 556 (antibody, V domains shown)
VH: QVQLVESGGGVVQPGRSLRLSCAASGFTFSSYAMHWVRQAPGKGLEWVAVISYDGSDKYYADSVKGRVTISRDNSKNTLYLQMNSLRVEDTAVFYCAKDDCSGGVCFPDYWGQGTLVTVSS
VL: QSALTQPASVSGSPGQSITISCTGTSSDVGGYNYVSWYQQHPGKAPKLMIYEVSIRPSGVSNRFSGSKSGNTASLTISGLQAEDEAAYYCSSYTSSSTLVFGGGTKLTVL
B2: anti-coronavirus antibody 546 (antibody, V domains shown)
VH: QVQLVESGGGVVQPGRSLRLSCAASGFTFSSYGMHWVRQAPGKGLEWVAVIWYDGSNKYYADSVKGRFTISRDNSKNTLYLQMNSLRAEDTAVYYCARNCGGDCVAGDGFDYWGQGTLVTVSS
VL: DIQMTQSPSSLSASVGDRVTITCRASQSISSYLNWYQQKPGKAPNLLIYAASSLQSGVPSRFSGSGSGTDFTLTISSLQPEDFATYYCQQSYSALTWTFGQGTKVEIK
B3: anti-coronavirus antibody 545 (antibody, V domains shown)
VH: QVQLVQSGSELKKPGASVKVSCKASGYTFTSYAMNWVRQAPGQGLEWMGWINTNTGNPTYAQGFTGRFVFSLDTSVSTAYLQISVLKAEDTGVYYCARDHELPNSSSWFGHFEYWGQGTLVTVSS
VL: SYELTQPPSVSVSPGQTARITCSGDALPKQYAYWYQQKAGQAPVLVIYKDSERRSGIPERFSGSSSGTTVTLTISGVQAEDEADYYCQSADSSGTSVVFGGGTKLTVL
B4: anti-coronavirus antibody 571 (antibody, V domains shown)
VH: EVQLVESGGGLVQPGGSLRLSCAASGFTFSTYWMTWVRQAPGKGLEWVANIKHDGSGKYHVDSVKGRFTISRDNAKNSLYLQMNSLRAEDTAVYYCTRDEGGWYDYWGQGTLVTVSS
VL: QSALTQPASVSGSPGQSITISCTGTSSDVGSYNPVSWYQQHPGKAPKVMIYEGSKRPSGVSNRFSGSKSGNTASLTISGLQAEDEADYYCCSYARSSTFVVFGGGTKLTVL
B5: anti-coronavirus antibody 544 (antibody, V domains shown)
VH: QVQLQQWGAGLLKPSETLSLTCAVYGGSFSGYYWSWIRQPPGKGLEWIGEINHSGSTNYNPSLKSRVTISVDTSKNQFSLKLSSVTAADTAVYYCARGFKWFGELLFGAQGTLVTVSS
VL: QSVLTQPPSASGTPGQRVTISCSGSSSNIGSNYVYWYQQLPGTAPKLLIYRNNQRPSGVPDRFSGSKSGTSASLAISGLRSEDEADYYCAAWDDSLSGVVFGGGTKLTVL
B6: anti-coronavirus antibody 566 (antibody, V domains shown)
VH: QVQLVQSGAEVKKPGASVKVSCKASGYTFTSYAMHWVRQAPGQRLEWMGWINAGNGNTKYSQKFQGRVTITRDTSASTAYMELSSLRSEDTAVYYCARDLGVAVTLHPADFDYWGQGTLVTVSS
VL: QSVLTQPPSVSGAPGQRVTISCTGSSSNIGAGYDVHWYQQLPGTAPKLLIYDNSNRPSGVPDRFSGSKSGTSASLAITGLQAEDEADYYCQSYDSSLSAVVFGGGTKLTVL
B7: anti-coronavirus antibody 556 (antibody, V domains shown)
VH: B1 VH
VL: B1 VL
B8: anti-coronavirus antibody 548 (antibody, V domains shown)
VH: QVQLVESGGGVVQPGRSLRLSCAASGFTFSSYAMHWVRQAPGKGLEWVAVISYDGSNKYYADSVKGRFTISRDNSKNTLYLQMNNLRAEDTAVYYCAKSGSGSYLSAFDIWGQGTMVTVSS
VL: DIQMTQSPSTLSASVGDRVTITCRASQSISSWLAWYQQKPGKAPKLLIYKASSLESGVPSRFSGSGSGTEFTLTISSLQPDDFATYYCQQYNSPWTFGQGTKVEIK
B9: anti-coronavirus antibody 560 (antibody, V domains shown)
VH: EVQLVESGGGLVQPGGSLRLSCAASGFTISSNYMSWVRQAPGKGLEWVSVIYSGGSTYYADSVKGRFTISRDNSKNTLYLQMNSLRAEDTAVYYCAREEGEWEKDYYGMDVWGQGTTVTVSS
VL: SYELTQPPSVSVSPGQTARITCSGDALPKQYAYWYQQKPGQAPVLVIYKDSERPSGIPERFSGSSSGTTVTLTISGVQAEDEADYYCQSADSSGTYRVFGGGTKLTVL
B10: anti-coronavirus antibody 563 (antibody, V domains shown)
VH: QVQLVESGGGVVQPGRSLRLSCAASGFTFSSYAMHWVRQAPGKGLEWVAVISDDGSNKYYADSVKGRFTISRDNSKNTLYLQMNSLRAEDTAVYYCARDIVATIRRLFDYWGQGTLVTVSS
VL: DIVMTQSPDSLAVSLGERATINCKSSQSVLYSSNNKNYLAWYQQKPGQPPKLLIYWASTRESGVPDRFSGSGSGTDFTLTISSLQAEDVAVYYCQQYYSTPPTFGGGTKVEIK
B11: anti-SARS-CoV-2 antibody 1015 (antibody, V domains shown)
VH: EVQLVESGGGLVQPGGSLRLSCAASGFTFSSYWMHWVRQAPGKGLVWVSHINSDGSSTSYADSVKGRFTISRDNAKNTLYLQMNSLRAEDTAVYYCARGLRYFDLDVWGQGTTVTVSS
VL: QSVLTQPPSVSEAPRQRVTISCSGSSSNIGNNAVNWYQQLPGKAPKLLIFYDDLLPSGVSDRFSGSKSGTSASLAISGLQSEDEADYYCAAWDDSLNGGVFGGGTKLTVLG
B12: anti-SARS-CoV-2 antibody 896 (antibody, V domains shown)
VH: EVQLVESGGGVVQPGGSLRLSCAASGFTFDDYAMHWVRQVPGKGLEWVSLISGDGGSTYYADSVKGRFTISRDNSKNSLYVQMNSLRTEDTALYYCVKDRGGSGWDLNHYYYGMDVWGQGTTVTVSS
VL: DIQLTQSPSFLSASVGDRVTVTCRASQGISSYLAWYQQKPGKAPKLLIYAAYTLQSGVPSRFSGSGSETEFTLTISSLQPEDFATYYCQQVKSYPLTFGGGTKVEIKR
B13: anti-SARS-CoV-2 antibody 1495 (antibody, V domains shown)
VH: QVQLVESGGGVVQPGRSLRLSCTASGFTFSSYAMHWVRQAPGKGLEWVAVISYDGNNKYYGDSVKGRFTISRDNSKNTLYLQMNSLRAEDTAVYYCAKGADTPHYSGYHFLSVGYYFYGMDVWGQGTTVTVSS
VL: DIQMTQSPSSLSASVGDRVTITCRASQSISYYLNWYQQKPGKAPQLLIYAASSLQSGVPSRFSGSRSGTDFTLTISSLQPEDFATYYCQQSYSTPFTFGPGTKVDIKR
B14: anti-SARS-CoV-2 antibody 894 (antibody, V domains shown)
VH: QVQLVQSGAEVKKPGASVKVSCKVSGYTLPELSIHWVRQAPGKGLEWMGGFDPENAETIYTQKFQGRLTMTEDTSTDTAYMELSSLRSEDTAMYYCATSFVLMPAALGDYSYYYGMDVWGQGTTVTVSS
VL: not shown
B15: anti-SARS-CoV-2 antibody 1075 (antibody, V domains shown)
VH: QVQLVQSGAEVKKPGASVKVSCKVSGYTLIELSMHWVRQAPGKGLEWMGGFDPEDGETIYAQKFQGRVTMTEDTSTDTAYMELSSLRSEDTAVYYCATEWAYYGSGSYLGYWGQGTLVTVSS
VL: EIVMTQSPATLSVSPGERATLSCRASQSVSSNLAWFQQKPGQAPRLLIYGASTRVTVIPARFSGSGSGTEFTLTISSLQSEDFAVYYCQQYNNWPRTFGQGTKVEIKR
B16: anti-SARS-CoV-2 antibody 1404 (antibody, V domains shown)
VH: QITLKESGPTLVKPTQTLTLTCTFSGFSLSISGVGVGWLRQPPGKALEWLALIYWDDDKRYSPSLKSRLTISKDTSKNQVVLKMTNIDPVDTATYYCAHHSISTIFDHWGQGTLVTVSS
VL: QSALTQPASVSGSPGQSITISCTATSSDVGDYNYVSWYQQHPGKAPKLMIFEVSDRPSGISNRFSGSKSGNTASLTISGLQAEDEADYYCSSYTTSSAVFGGGTKLTVLG
B17: anti-SARS-CoV-2 antibody 1538 (antibody, V domains shown)
VH: EVQLLESGGGLVQPGGSLRLSCAASGFTFSSYAMSWVRQAPGKGLEWVSGISDSGGSTYYADYVKGRFTISRDNSKDTLYLQMNSLRAEDTAVYYCAKDRGNEYALTHYYYYAMDVWGQGTTVTVSS
VL: DIQMTQSPSSLSASVGDRVTITCRASQSISSYLNWYQQKPGKAPKLLIYAAYSLQSGVPSRFSGGGSGTDFTLTISSLQPEDFATYFCQQSYSTPITFGQGTRLEIKR
B18: anti-SARS-CoV-2 antibody 851 (antibody, V domains shown)
VH: QITLKESGPTLVKPTQTLTLTCTFSGFSLSTNGVGMGWIRQPPGKALEWLALIYWDDDQFYSPSLKSRLTITRDTSKNQVVLTMTNMDPVDTATYYCAQAFYESFGFYSWGQGTLVTVSS
VL: NFMLTQPHSVSESPGKTVIISCTRSIGSIASNYVQWYQQRPGSAPTIVVFEDNERPSGVPDRFSGSIDRSSNSASLTISGLKTEDEADYYCQSYDGSSELVFGGGTKLTVLG
B19: anti-SARS-CoV-2 antibody 1444 (antibody, V domains shown)
VH: QVQLVQSGAEVKKPGASVKVSCKASGYTFTAYYMHWVRQAPGQGLEWMGWINPNSDDTNYAQKFQGRVTMTRDTSISTAYMELSRLRSDDTAVYYCAREEGVFTIGDRYFDLWGRGTLVSVSS
VL: QTVVTQEPSFSVSPGGTVTLTCGLSSGSVSTSYYPSWYQQTPGQAPRTLIYNTNTRSSGVPDRFSGSILGNKAALTITGAQADDESDYYCVLYMGSGIWVFGGGTKLTVLG

The target in the first assay is SARS-CoV-2 full length Spike protein, wild type (SARS-CoV-2, UniProt P0DTC2 14-1208).
Test: not given
As for B1, the “median fluorescence intensity, fold over isotype control” value (from here on “median fluorescence intensity, fold”) was determined as 625 fold over isotype.

A further assay concerns the target SARS-CoV Spike protein (SARS-CoV, UniProt P59594 14-1190).
Test: not given
For B2, the “binding signal (fold over isotype control)” value worked out at 1.18 fold over isotype control.

As to B3, the “binding signal (fold over isotype control)” value is 1.13 fold over isotype control.

Take B4: the “binding signal (fold over isotype control)” value came to 1.28 fold over isotype control.

With B5, the “binding signal (fold over isotype control)” value is 1.05 fold over isotype control.

For the molecule B6, the “binding signal (fold over isotype control)” value is 0.97 fold over isotype control.

As to B7, the “binding signal (fold over isotype control)” value was 1.09 fold over isotype control.

As to B8, the “binding signal (fold over isotype control)” value was found to be 18.1 fold over isotype control.

Turning to B9, the “binding signal (fold over isotype control)” value amounted to 1.14 fold over isotype control.

Regarding B10, the “binding signal (fold over isotype control)” value turned out to be 35.4 fold over isotype control.

Another assay deals with SARS-CoV-2 full length Spike protein, wild type, expressed on CHO cells (SARS-CoV-2, UniProt P0DTC2 14-1273).
Test: not given
As for B11, the “median fluorescence intensity, fold” value stood at 30.5 fold over isotype.

As for B12, the “median fluorescence intensity, fold” value was 70.3 fold over isotype.

On to B13, for which the “median fluorescence intensity, fold” value stood at 57.3 fold over isotype.

As for B14, the “median fluorescence intensity, fold” value turned out to be 77.7 fold over isotype.

Take B15: the “median fluorescence intensity, fold” value came to 78.7 fold over isotype.

In the case of B16, the “median fluorescence intensity, fold” value turned out to be 71.2 fold over isotype.

As to B17, the “median fluorescence intensity, fold” value was 67.5 fold over isotype.

For B18, the “median fluorescence intensity, fold” value was found to be 60 fold over isotype.

As for B19, the “median fluorescence intensity, fold” value was found to be 48.7 fold over isotype.

Another assay has as its target T1, SARS-CoV full length Spike protein, wild type, expressed on CHO cells (SARS-CoV, UniProt P59594 14-1255).
Test: not given
Regarding B11, the “median fluorescence intensity, fold” value came out at 0.89 fold over isotype.

As to B12, the “median fluorescence intensity, fold” value was 0.69 fold over isotype.

As to B13, the “median fluorescence intensity, fold” value amounted to 0.72 fold over isotype.

As for B14, the “median fluorescence intensity, fold” value amounted to 0.67 fold over isotype.

As for B15, the “median fluorescence intensity, fold” value is 0.86 fold over isotype.

As for B16, the “median fluorescence intensity, fold” value amounted to 0.86 fold over isotype.

Turning to B17, the “median fluorescence intensity, fold” value stood at 0.75 fold over isotype.

As to B18, the “median fluorescence intensity, fold” value was 0.62 fold over isotype.

Consider B19, for which the “median fluorescence intensity, fold” value worked out at 0.77 fold over isotype.

In another assay the target is T1, SARS-CoV full length Spike protein, …. Briefly: flow cytometry, live cell assay on transfected CHO cells. On the technique in general: Flow cytometry measures light scatter and fluorescence of single cells or particles in a stream.
Turning to B11, the binding result is “no binding”.

In the case of B12, the binding result is recorded as “no binding”.

In the case of B13, the binding result was “no binding”.

Consider B14, for which the binding result is “no binding”.

In the case of B15, the binding result was “no binding”.

B16: the binding result was “no binding”.

Consider B17, for which the binding result is listed as “no binding”.

Take B18: the binding result is reported as “no binding”.

Regarding B19, the binding result was “no binding”.
